We go through 17 sequences from the DeepSol protein solubility set.

The series is described as follows: soluble on expression in E. coli; label from the status in PepcDB or PDB records.
In the case of “MGSDKIHHHHHHVHACGAETAPRCVTSYPFAQMPTAQTKKEKRPPASIESRIAECYDELSEIDQRLADVILSAPGQLAMQTATELASSAQVSKATATRFFQKLGYASYDDARAIARAAQVGGSPLYLQDRGRKTAGSKLDDVIQRHLQHEVENMANTYRSLDTQVLSEVVDAIAQARRVAIIGYRHSYTVATMIRRELIQVRSDVMLLPAPGDTIGEYLADLNAKDLAIVIGLRRRVPAVGLATAALAEAGVPVVYMSDVIAGKPARLARWVIRCHTDGLMLFDSKAGMTAVVNLICSLVAERVLDRSNSHLQRVEVLHDSLRELE”, the “soluble on expression in E. coli” value is reported as “not soluble”.

Take “MKILILGNGQVGSTVAQNLAAIPNNDVTVIDIDEKALQETGSRLDVQTVFGNGASPFTLERAGAEDADLLLALSRSDETNIVACKVAADLFNIPGRIARVRSSEYLEYLSPKLENNENGSLSIFGITETISPEQLVTEQLAGLIDCPGALQVLRFADDRVRMVIIQARRGGLLVGRSIADIAQDLPDGADCQICAVYRNNRLIVPAPQTVIIEGDEILFAAAAENIGAVIPELRPKETSTRR”: the “soluble on expression in E. coli” value is on record as “not soluble”. For the sequence “GMRQGAGLGYRRDLAEGFLQLRNNDRIQFMEIAPENWIKMGGFARYQFDKVAEKIPILIHGLSLSLGGQAPLDKELLSSIKAMIKQYNTPFFSDHLSFCECDGHLYDLLPMPFTDEAVKHTAARIREVQDFLEIQISVENTSYYLHSETSTMNEVEFLNAIVQEANCGIHLDVNNIYVNAVNHGLLDPHVFIDNVDLKRVNYIHIAGHDDEHAATEVQIQTSESFNKIKGDLRHLPPLLVDTHGENVKGTVWDLLEYTYARLSHMPPTLLERDFNFPPFEKLCKEVDIIHQLQQKYVKKRGLSWLKI”, the “soluble on expression in E. coli” value is given as “soluble”.

In the case of “EVKLEESGGGLVQPGGSMKLSCAASGFTFSDAWMDWVRQSPEKGLEWVAEIRSKVNNHAIHYAESVKGRFTVSRDDSKSSVYLQMNSLRAEDTGIYYCSGWSFLYWGQGTLVTVSAAKTTPPSVYPLAPGSAAQTNSMVTLGCLVKGYFPEPVTVTWNSGSLSSGVHTFPAVLQSDLYTLSSSVTVPSSTWPSETVTCNVAHPASSTKVDKKIVPRD”, the “soluble on expression in E. coli” value is listed as “soluble”. “MAKVKRRDLLKAGAALAAAGTLGKGFAQEFYASPPTLLPRSRAPRVVVVGGGWGGTTVARKVKQQNPGVEVVLVEQKPIFMSCPMSNLFLAGVKPLEWLVFDYTNVVKDGVIFVQEKVLEINRDRRLVRTTGGYLAYDFLVLAPGIDYMYEAIPGYEEAKHFLPVGFKPFEHIALRRMLDRFDETGGELVMYIPPPPYRCPPGPYERAAMLAWRLKTKGVKGKVIVLDANPQPLAKAPGFLAAYNELYKDYLEYQPNMRITGLDYEKKVVRTELGDYPFTLANVIPPMKAAEIVRQAGLGERWANVRIPYFLSEADDRVYLVGDITGNTPYPKSGMIAYVSGTIVARHLTERLKGKPLAEIPPELPTNICYSFVDSEEAIWVSANYSWDEAEKRIKAQSQVDNQRSKANGEAAIGWALGLWNDMFGPA”: the “soluble on expression in E. coli” value is reported as “soluble”. In the case of “MGSDKIHHHHHHMNYKITTLAENSVYGKGLQGEHGLSLLVEAGEHKVLFDTGASDLFLRNARLLGLDLSDVEYVVLSHGHRDHTGGLYAFLKMNSVAKVVCKREVFRKKFKNERENGMLHPEALDKSRFWLVDETTEIVPGVFAFPDVKVVDRNDTHFEHFFTEIEGEMRPDTFEDELALVLKGEKSLSVLSACSHRGITNIIRAVQNAFPGLGLKLVMGGFHIHNAEEEKFNVISAFLGMKLPKRLGVCHCTGIDKYALFRQQFNDRVFYNYTGWVETI” it was “not soluble”; in that of “MPTPEDVPMDENDAGRVAEGSQDESKTPSREVLKKLLNEVEMAEMEENEMWYLISQKWWNSLIKAVRDGFVDDVGPIDNSQISECRNGSFFLKQRLAEQVDYTPVPEILFKRLERFYHIDDDRRDYIQRRVVRKDGKLCIEVYPRIVHITSARNRDIKADLVLRPDDTMVSLRERVIGELSLSTTDNIRFYVMNGENYELIDTAQSIDSYFDTVQKVVVDVEEDGEFFIKGKSATPKSLFGTQSSSSHGGNGISNSYNSPSPSTGVVTRTTPGACGLSNLGNTCFMASAFQCLSNMPPLREYFLANTYQNDINEDNPLGTHGHLAMAVGELMKGMWSGDYASINPRKFKSIIGQFAPRFNGYSQQDAHELMAYVLDGLHEDLNRIKKKPYIEDSDEDAKLPEAEYAAKSWEVYKMRNDSIIVDTLHGQLKSTLICPVCEKISIKFDPFGYLSLPLPPKEQIVKQTVIVMFLTRKWAKFSLGITDTTTVEEAERLMLDKLQPEQQHHFVFFHVPSQYHDDITMMRPGDRVRMPGREVYVAEVEHDLQVKGTRLFVAYNRIKLVRSASLPMIYSLPTGYPLTRGFLNDHVFSTTKHFFINPKAVAELGGGNSNDDDSMSGSNSADEREPYKLFVGPPGSTASLPIPPTDDPIPFPDENSHDIYSNFLQIVFQWKDLKIFNQYKGNELIEREMTVSTRRKVLLQETLDWFTTKEQLGEQDSWYCPQCKKHERATKQLALWKLPEILILHLKRFQYTKWSREKLTWEVVIPVRGLDLTDKVANPNHEKAIYDLIAVSRHYGSLSGGHYTAIGYNDREQKWFDFNDSSANPTYPPAEPYESSDPYILVYRRRKLDSNGKPIEPSAVSESLHSRPKRGAAPTISSATSSASSSRHQVDENMEMEED”, “not soluble”. With “MGSDKIHHHHHHMRNASIEQYDATPRAVVAMGTDYPDGYLLPRHRHRRAQLLYGASGVMQVRTGDAGWVVPPQRAVWIPPGVEHEVRMLGVSTRSLYIEPGSAMAMPAHCQVLAVSPLLRQLLLAAVDMPLEYDTEGRDGALATLLLHELAAAETLPLHVPLPPEPRWLALCEAFLVEPDIRASAERWAGLLHTSLRSFNRTFRRYTGLSFGAWKQRACVVQALARLAGGETVTAIALDCGYQSPAAFSTMFRRVLGQPPSAFQAGALRSPGGP” the entry was “not soluble”; with “MVINSPEKEDTALILYTSGTTGKPKGVMLTFDNILANVDSLDVYKMYEETDVTIALLPLHHILPLLGTGVMPLLYSATIVFLEDISSVALIDAMKKYKGTMMIGVPKLWEVMHKKIMDTINSKAITRFIFKLAKKVNSLSFSKLIFKKVSEGFGGHIKFFVSGGSKLNPQITKDFYTLGIKICEGYGMTETSPIISYTPKNNIVFDSAGKLEHHHHHH”, “not soluble”.

Take “MGSDKIHHHHHHMKLYAENILLNDGWASKQTITIEQGIITAVDAGKIEGAEIAKGAVIPGMVNCHSHAFQRAFAGFSEQGSEGQDSFWTWRKIMYQFLAQLTELDAKNIAKQLYIEMLKMGYTRVAEFHYLHHDIDGSTYNSSVTTDKSASLATMAQAIFDAAKESGIGLTLLPVLYQHSGFGEQTPSDGQKRFINSTEQFNQLVSDCFTLSEQYSNTNVGIAPHSLRAVDKTSLLSAVKHVRSLDNQAPIHIHISEQQKEVDDCLAHFGQRPVQWLLDNVELDKHWCLIHATHIDEAERKGIIAKEAIAGICPTTEANLGDGIFPTTEFLADKGTIAIGSDSHISVNPIEELRWLEYAQRLIKQQRAILATDEQASVGQNLWQQAAIGGAQSTNSNTGSLAIGKQADLLVLDKDKTKLFASASQQLLDSMIFASQQNPVSDVMVNGVWQIKAQQHVEQEQASDNFANLLVRLSAS”: the “soluble on expression in E. coli” value was “not soluble”. In the case of “MALKLPIPHNILILNRNSALELLRALKEVPKLIITRIPPDEWPDVAYTEYIWLSRVEGPNSVSPTALHVIIERAKTFLDENSGGVIYVDGIEYIMLYEEFKSVAKFLLTLKDIAVVKEGHLILHVDPKTLEDHQMAVLEREFVKINVEETIEKIRGPTLFGALIEEKGLEHHHHHH” it was “soluble”; in that of “MAHHHHHHMSSAFLAQLPFVGSSSTLGWQHDDVARSYMEHVLHRARVLLPRRGWRIGLIKEFYPRGATLLGLNVNAGSEVCIRFRVPGKKNEFLPFHEVLCTALHEFTHCVHSRHDRAFWNLYYDLVKECEALEITMIQQGMRLYPAISSTPMSCTGTASQQSRSGREGRTAATASSARGGGRRLGNGGARGGGRGAGGGMSTGSRHVAQTVIKAGRAVSSSSSSPPSSAAFPGEGRRLGGGGFRQYDAPIGFTPTRDALRRILAGAAERRLARTPPLAATVTLGSHPLALSLHNTTFPQRDEGQSEVDDDDAPDCVPHSLSGHEDGGGWNCPRCGFRNDDNVVGSCAFCADCDDEDEGEATWRKRPRLDSDHSPLETPTIVVSLATASKTAPTQQLQQQQLECTAEEHYIVVSDEDDS”, “soluble”.

As to “MGSDKIHHHHHHMDILLANPRGFCAGVNRAIQIVDRALELFGAPIYVRHEVVHNRHVVEDLRARGAIFVEELDEVPDAATVIFSAHGVPIAVREHAAARGLSVFDATCPLVTKVHMEVKKYSRDGMEMVLIGHAGHPEVEGTMGQVEEGMMYLVSNVSDVATLAPRNPDKLAYITQTTLSMDDTAEVIVALRSRFPLIEGPKKDDICYATQNRQDAVKSLAPDVDILLVVGAPNSSNSSRLAELGTRLGTQTHLIEDAQQLRREWFEGVGKIGISAGASAPESLVQEIMDTLRGWGARVPQEMPGVEEKVTFSLPLALIQAQTRREGA”, the “soluble on expression in E. coli” value is given as “not soluble”. In the case of “MGSDKIHHHHHHMTPITQSEINKAAWGACDTFRGVVDPSIYKDYVLTMLFLKYVSDVWKDHKASYAAHYPDSPELVAAMMERETFKLPETASFDALHGRRHEPGNGERIDKALHAIEEANGSKLRDVFQDISFNSNKLGDEEQKNDILRHLLEDFAKTALDLRPSRVGNLDIIGGAYEYLISRFAATAGKKAGEFYTPAEVSELMARLVDPQPGDDICDPTCGSASLLMKCGRLIREGGSKAYALFGQEAIGSTWALAKMNLFLHGEENHQIEWGDTIRNPKLRTSDDMLRHFDVVVANPPFSLDKWGVESAEADKFARFRRGIPPKTKGDYAFILHMIETLKPKTGRMAVVVPHGVLFRGSSEGKIRHKLIEDNLLDAVIGLPEKLFFGTGIPSAILVFRKDKADDSVLFVDASREFVAGTNQNALDMTLIEKIVATHQTRQTVEKYAYRATLAEIIENDFNLNIPRYVDTFEEEEEIDLMAVRAERMKLKGEMAELEDRMEGYLQELGY” it was “not soluble”; in that of “SLNIKDEHIDSVCSLLDQLVGNVSFKNLFTGYGLFHKEETMFAIWQNKKLYLRGEGVLAIQLTKLGCEPFTTNELNKRFVLSQYYALSDQILRSNRLCRKLIILSIKQILEQKLECTLRKLNRLKDLPNLTIKHERALIKVGITNVAMLREIGAENALVELKKSGSGATLDFYWKLVCALQNKNSQMLSQAEKERLLKKLNEVWRKNGLKGYRKLDDE”, “not soluble”. “MGSDKIHHHHHHMARANRHYIPGQVWHITHRCHKKEFLLKFARDRRRWLHWLFEAKKRFGLQVLNYAVTSNHVHLLVVDTKPEVVAKSIQLIAGRTAQEFNQRKDRKGAFWEDRYHATAIERNEHLVRCLVYIDLNMVRAGVVTHPAEWEMNGYNEIQNPPDRYAIIDRHSLFDACGFPDYGSFAEQHRKWVEDALKKGMNREGHWTESIAVGSSAFITDTQRKMGCSAKGRKLEEQVDGASFLREDAEPYHAHFTGKSEVLSPENAFFWDDYDVVPVG”: the “soluble on expression in E. coli” value is listed as “not soluble”. On to “MSLEKKVLATVGNTEITSDYIDEIIARYPAQQQAMLASDEGKRQVLEQAIAFELMSEFAKETGLDKTEEFKDQLNKFAKELLAQMVMKKTLSSVTVTDDEAKAFYEEHKENFVELETVTAKHILVASEEEAKKVEEEIASGSITFEDAANKYSSCPSKEQGGNLGSFSKGMMVPEFEEAAFNLELGVVSAPVKTQFGYHLIKVEDKTEAKTKAFEDVKEQVVNMLIQERQQKKYLELIKELREKYGVKLAEGHHHHHH”, for which the “soluble on expression in E. coli” value is “soluble”.
